This is an account of results in patent US7579445.

For test [1], the target named is surface of P815-PSA cells (PSA-transfected DBA/2 mastocytoma cell line). Briefly: FACS on P815-PSA cells; negative control 5.
Test [2] has as its target surface of Line-1-PSA cells (PSA-transfected Balb/cByJ lung carcinoma cell line). Briefly: FACS on Line 1-PSA cells; negative control 7.
Test [3] shares this target. Briefly: FACS on Line 1-PSA cells; negative control 4.
Test [4] deals with surface of P815-PSA cells (PSA-transfected DBA/2 mastocytoma cell line). Description: FACS on P815-PSA cells; negative control 3.

Turning to MOPC-21 (antibody), the mean fluorescence came out at 37 in test [1], 8 in test [2], 5 in test [3] and 11 in test [4].
